The values below come from PMC10517255, “Cysteine Enrichment Mediates Co-Option of Uricase in Reptilian Skin and Transition to Uricotelism” (Molecular Biology and Evolution, 2023).

Series [1] deals with T1, GgUox (Gallus gallus, UniProt A0A8V0ZED1).
T1 construct: gene LOC101747367; uricase-like CDS in pET28 (NheI/XhoI), N-terminal His-tag with thrombin site (uncleaved for crystals)
T1 sequence (A0A8V0ZED1 1-320): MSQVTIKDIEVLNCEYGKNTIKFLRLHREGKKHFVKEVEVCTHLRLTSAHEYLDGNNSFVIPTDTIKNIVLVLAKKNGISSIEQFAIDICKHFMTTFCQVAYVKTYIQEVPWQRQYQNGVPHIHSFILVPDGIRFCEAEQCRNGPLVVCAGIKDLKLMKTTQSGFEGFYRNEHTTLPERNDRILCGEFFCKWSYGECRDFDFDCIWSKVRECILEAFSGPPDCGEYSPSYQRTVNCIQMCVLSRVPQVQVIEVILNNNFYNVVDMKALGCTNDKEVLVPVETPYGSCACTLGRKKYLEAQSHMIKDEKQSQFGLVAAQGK
The experiment in a line: X-ray crystallography, […]-2.[…] Å, reduced and H2O2-oxidized crystals. Format: binding. The following applies: active site at dimer interface; uncleaved His-tag; space groups P2_12_12_1 and C222_1.

The target in the next series is T2, DrUox (Danio rerio, UniProt Q6DG85).
T2 construct: gene uox; enzyme described in Marchetti et al. 2016; tetrameric, about 150 kDa
T2 sequence (Q6DG85 1-298): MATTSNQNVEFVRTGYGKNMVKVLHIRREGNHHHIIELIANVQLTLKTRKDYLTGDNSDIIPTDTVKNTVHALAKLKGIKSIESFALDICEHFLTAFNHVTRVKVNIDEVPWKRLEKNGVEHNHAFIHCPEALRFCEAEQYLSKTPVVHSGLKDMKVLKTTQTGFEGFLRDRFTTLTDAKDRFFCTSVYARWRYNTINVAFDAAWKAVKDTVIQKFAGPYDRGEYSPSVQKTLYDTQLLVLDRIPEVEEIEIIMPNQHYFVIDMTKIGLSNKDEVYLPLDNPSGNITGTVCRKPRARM
Description: stopped flow, single turnover, diode array. The note with it: 35 μM enzyme, 25 μM urate, 100 mM potassium phosphate pH 7.6, 25°C. Format: biochemical.

For series [2], the target named is T3, GgUox (Gallus gallus, UniProt A0A8V0ZED1, Y230H).
T3 construct: gene LOC101747367; uricase-like CDS in pET28 (NheI/XhoI), N-terminal His-tag with thrombin site (uncleaved for crystals)
T3 sequence (A0A8V0ZED1 1-320 Y230H): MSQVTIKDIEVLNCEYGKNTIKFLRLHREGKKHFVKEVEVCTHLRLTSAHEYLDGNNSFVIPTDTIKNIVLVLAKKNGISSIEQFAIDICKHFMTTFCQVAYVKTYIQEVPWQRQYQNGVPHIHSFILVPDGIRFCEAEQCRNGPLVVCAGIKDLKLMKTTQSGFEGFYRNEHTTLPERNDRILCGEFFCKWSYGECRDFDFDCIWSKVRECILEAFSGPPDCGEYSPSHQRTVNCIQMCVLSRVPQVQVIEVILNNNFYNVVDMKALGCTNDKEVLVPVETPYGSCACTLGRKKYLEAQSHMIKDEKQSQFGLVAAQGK
Description: uricase activity, specific activity. Format: biochemical. The following applies: activity relative to wild type.

The target of series [3] is Gallus gallus Uox (cysteine-rich urate oxidase) (Gallus gallus). The experiment in a line: atomic force microscopy; particle volume of the enzyme on mica, native or pre-incubated with βME, 100 nM protein in 4 mM HEPES pH 7.4, 10 mM NaCl, 2 mM MgCl2, imaged in air, tapping mode.
The target is the same in series [4]. The experiment in a line: SEC; purified GgUox, single peak (supplementary fig. S4B).
The target is the same in series [5]. The experiment in a line: crystal structure; GgUox with uncleaved N-terminal His tag in complex with the inhibitor 8-azaxanthine; space groups C222_(1) and P2_(1)2_(1)2_(1); reduced, and oxidised by a 100 mM H2O2 soak for 15 min.
Substrate in the series “purified protein”: O=c1[nH]c(=O)c2[nH]c(=O)[nH]c2[nH]1
Description: purified protein. The note with it: 100 mM potassium phosphate pH 7.6, 25°C, 4.1 µM GgUox, 1 µM HIUase, 2-140 μM urate. Format: biochemical, Gallus gallus.

Series [6] concerns the molecule itself. Description: atomic force microscopy; particle volume of the enzyme on mica, native or pre-incubated with βME, 100 nM protein in 4 mM HEPES pH 7.4, 10 mM NaCl, 2 mM MgCl2, imaged in air, tapping mode.

Take `O=c1[nH]c(=O)c2nn[nH]c2[nH]1` [8-azaxanthine]: at GgUox [1], the “X-ray crystallography, 1.7-2.1 Å, reduced and H2O2-oxidized crystals” value was “We crystallized GgUox in complex with its AZA inhibitor in two space groups”.
As to `O=c1[nH]c(=O)c2[nH]c(=O)[nH]c2[nH]1` [uric acid], at DrUox, the “stopped flow, single turnover, diode array” value was “the same experiment was carried out with DrUox for comparison”. Besides, the “uricase activity, specific activity” value at GgUox [2] is reported as “we mutated the tyrosine in the active site of GgUox to either histidine (Y230H)”.
For the molecule “Gallus gallus Uox (cysteine-rich urate oxidase) (enzyme)”, the stoichiometry N in series [3], in series [4] and in series [5] was 4 throughout.

B1: GgUox (Gallus gallus) (protein)
chain: MSQVTIKDIEVLNCEYGKNTIKFLRLHREGKKHFVKEVEVCTHLRLTSAHEYLDGNNSFVIPTDTIKNIVLVLAKKNGISSIEQFAIDICKHFMTTFCQVAYVKTYIQEVPWQRQYQNGVPHIHSFILVPDGIRFCEAEQCRNGPLVVCAGIKDLKLMKTTQSGFEGFYRNEHTTLPERNDRILCGEFFCKWSYGECRDFDFDCIWSKVRECILEAFSGPPDCGEYSPSYQRTVNCIQMCVLSRVPQVQVIEVILNNNFYNVVDMKALGCTNDKEVLVPVETPYGSCACTLGRKKYLEAQSHMIKDEKQSQFGLVAAQGK
notes: uricase-like CDS in pET28 (NheI/XhoI), N-terminal His-tag with thrombin site (uncleaved for crystals)
B1: in the series “purified protein”, the Michaelis-Menten constant (Km) came out at 12.5 µM and the kcat turned out to be 0.03 s⁻¹.

B2: Danio rerio Uox (enzyme, UniProt Q6DG85 1-298, looked up)
chain: MATTSNQNVEFVRTGYGKNMVKVLHIRREGNHHHIIELIANVQLTLKTRKDYLTGDNSDIIPTDTVKNTVHALAKLKGIKSIESFALDICEHFLTAFNHVTRVKVNIDEVPWKRLEKNGVEHNHAFIHCPEALRFCEAEQYLSKTPVVHSGLKDMKVLKTTQTGFEGFLRDRFTTLTDAKDRFFCTSVYARWRYNTINVAFDAAWKAVKDTVIQKFAGPYDRGEYSPSVQKTLYDTQLLVLDRIPEVEEIEIIMPNQHYFVIDMTKIGLSNKDEVYLPLDNPSGNITGTVCRKPRARM
notes: Danio rerio urate oxidase (DrUox), as in Marchetti et al. 2016; also called DrUox; uricase
Consider B2, for which the “stoichiometry N” value in series [6] was 4.
